The source of these data is PMC7411789, “Application of a Glucose Dehydrogenase-Fused with Zinc Finger Protein to Label DNA Aptamers for the Electrochemical Detection of VEGF”.

The target in this data set is ZF-GDH (Zif268 fused to N-terminus of AfGDH) (mouse (Zif268); Aspergillus flavus (GDH), UniProt P08046 336-416). Description: method not stated; states fusion kept dsDNA binding, with ref 25; TBS: 10 mM Tris-HCl, 100 mM NaCl, pH 7.0; washes with 0.05% Tween-20, block 4% skim milk; 25 °C, 1 h.

B1: Zif268 target dsDNA (dsDNA)
DNA 1: GCGTGGGCG
DNA 2: CGCCCACGC
Take B1: the binding result is recorded as “binds”.
